For two substances, binding signal (% looped molecules) and binding signal (% operator occupancy) results are on record in paper PMC5477534.

In this series the test system is lac repressor (LacI). The series is described as follows: SFM imaging. Conditions: streptavidin bound, SFM: 7.5 nM LacI, about 30 min incubation, 100 uM NTPs for 60 s, EDTA quench, poly-L-ornithine-coated mica, buffer, salt, pH and temperature not in the ….

As to Os-400-O1 SFM template, the binding signal (% looped molecules) by setting is: (7.5 nM LacI, with transcription (NTP), 3'/downstream-end biotin) 50; (7.5 nM LacI, without transcription, 3'/downstream-end biotin) 34. In addition, under “7.5 nM LacI, without NTP (drops about 20% with transcription), 3'/downstream-end biotin”, the binding signal (% operator occupancy) was greater than 90.

Regarding O2-400-O1 SFM template, the binding signal (% looped molecules) runs as follows: (LacI, with transcription (NTP), downstream-end biotin) 14; (LacI, without transcription, downstream-end biotin) 12.
